In publication PMC4969574 (The EMBO Journal, 2016):
“And” between values parts separate entries of the source, which are not always exact repeats. Identical values can stand only once.

Columns and labels:
[1] = molecular target: T1, TssA1 fused to the adenylate cyclase T25 or T18 subunit (P. aeruginosa, UniProt Q9I750 1-344); test: two-hybrid; bacterial two-hybrid (BTH), T25 and T18 adenylate cyclase fusions in E. coli DHM1; β-galactosidase activity in Miller units and X-gal LB agar plates; details: partners not purified
T1 sequence: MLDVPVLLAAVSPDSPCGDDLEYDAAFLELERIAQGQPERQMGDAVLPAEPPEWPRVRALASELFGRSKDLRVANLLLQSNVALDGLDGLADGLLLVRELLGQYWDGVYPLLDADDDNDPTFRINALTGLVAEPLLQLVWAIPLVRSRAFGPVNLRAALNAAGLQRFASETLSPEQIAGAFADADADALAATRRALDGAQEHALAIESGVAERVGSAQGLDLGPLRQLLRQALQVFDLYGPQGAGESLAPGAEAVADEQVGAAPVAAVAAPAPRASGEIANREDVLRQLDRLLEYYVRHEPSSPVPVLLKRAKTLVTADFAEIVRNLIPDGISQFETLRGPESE

[2] = molecular target: the molecule itself; test: AUC; sedimentation velocity of His6-TssA1 at 0.8, 0.56 and 0.32 mg/ml, 20,000 and 30,000 rpm, 20 °C, 25 mM Tris-HCl pH 7.5, 200 mM NaCl; c(s) by SEDFIT

B1: TssK1 fused to the adenylate cyclase T25 or T18 subunit (natural protein)
chain: MSWNNRVVWSEGMFLRPQHFQQHDRYLETLVDGRCRSLLAGGWGFSELKLDDALLTQGKLAIVSARGVLPDGTPFNIPADDPAPAPLNVEESLRDGIVYLGLPLKRVGTRDTVEEGEALGGARYVSQVQEVRDDNAAFESRAPVALGSQAFRLLTERDGLGEYAAVGVARVREKRADQALSLDEDYLPPVLDIAAAPPLASFAKELLGLLHQRGEALAGRVVASSAGGASEIADFLLLQLVNRAEALTGHLSRVRPLHPQELYRELVALAGEFCTFTASQRRPEEYPVYNHDDLAASFAPVMLALRQALATVIDAKAIAIPIVEKAYGVHVAMLSDRSLIDNASFVLVVRADVPGESLRGHFPQQAKVGSVEHIRDLVNLQLPGIGLLPMPVAPRQIPYHAGSTYFELDRGSAHWKQLTHSGGFAFHIAGQFPGLNLAFWAIRG
fold above control (β‐galactosidase activity) [1]: ~20 fold

B2: His6-TssA1 (natural protein)
chain: T1 sequence
stoichiometry N [2]: 12 and 24
